Data on one substance can be found in paper PMC3382138, “On the Structure and Function of the Phytoene Desaturase CRTI from Pantoea ananatis, a Membrane-Peripheral and FAD-Dependent Oxidase/Isomerase” (PLoS ONE, 2012).

Data set [1] has as its system Cc1cc2nc3c(=O)[nH]c(=O)nc-3n(C[C@H](O)[C@H](O)[C@H](O)COP(=O)(O)OP(=O)(O)OC[C@H]3O[C@@H](n4cnc5c(N)ncnc54)[C@H](O)[C@@H]3O)c2cc1C. Put plainly: purified protein. The note with it: phytoene 7 µM (7.5 µM in Figure 4 legend) in phosphatidyl-choline liposomes, aerobic, phosphate pH 8.0, 100 mM NaCl, 37 °C, 12 min, varied: cofactor.
Data set [2] concerns CC(C)=CCC/C(C)=C/CC/C(C)=C/CC/C(C)=C/C=C\C=C(/C)CC/C=C(\C)CC/C=C(\C)CCC=C(C)C. Kind of data set: purified protein. The note with it: 150 µM FAD, phytoene 0.8-9.2 µM (apparent bulk concentration) in phosphatidyl-choline liposomes, aerobic, phosphate pH 8.0, 100 mM NaCl, 37 °C, 12 min, not saturated.

Turning to CRTI (CRTI-His6) (Pantoea ananatis), the Km in data set [1] worked out at 50.5 ± 2.9 µM; in data set [2], 16.7 ± 1.9 µM.
